Experimental data as given in patent US20020058247A1 (TRIPEP, published 2002).

Legend:
[1] = target: T1, Full length recombinant HBcAg (rHBcAg) encompassing residues 1-183 (hepatitis B virus, UniProt P03146 1-183); experiment: EIA, support-bound peptide, HBcAg 2 ug/well
T1 construct: range 1-183; also called hepatitis B virus core antigen

[2] = target: T2, non-structural 3 protein (NS3) of the hepatitis C virus (HCV) (hepatitis C virus); experiment: EIA, support-bound peptide, HCV NS3 control
T2 construct: Control antigen; also called HCV NS3

[3] = target: T1, Full length recombinant HBcAg (rHBcAg) …; experiment: EIA, support-bound peptide, HBcAg 0.2 ug/well
[4] = target: T1, Full length recombinant HBcAg (rHBcAg) …; experiment: competition EIA, HBcAg coated 1 ug/ml, peptide 25 ug/ml before mAb 4-2 (competitor); OD of bound mAb
[5] = target: T1, Full length recombinant HBcAg (rHBcAg) …; experiment: competition EIA, HBcAg coated 1 ug/ml, peptide 50 ug/ml before mAb 4-2 (competitor); OD of bound mAb
[6] = target: T1, Full length recombinant HBcAg (rHBcAg) …; experiment: competition EIA, HBcAg coated 1 ug/ml, peptide 100 ug/ml before mAb 4-2 (competitor); OD of bound mAb
[7] = target: T1, Full length recombinant HBcAg (rHBcAg) …; experiment: competition EIA, HBcAg coated 1 ug/ml, peptide 200 ug/ml before mAb 4-2 (competitor); OD of bound mAb
[8] = target: T1, Full length recombinant HBcAg (rHBcAg) …; experiment: competition EIA, HBcAg coated 1 ug/ml, peptide 12.5 ug/ml before mAb 4-2 (competitor); OD of bound mAb
[9] = target: T1, Full length recombinant HBcAg (rHBcAg) …; experiment: competition EIA, HBcAg coated 1 ug/ml, peptide 6.25 ug/ml before mAb 4-2 (competitor); OD of bound mAb
[10] = target: T1, Full length recombinant HBcAg (rHBcAg) …; experiment: competition EIA, HBcAg coated 5 ug/ml, peptide 25 ug/ml together with mAb 4-2 (competitor); OD of bound mAb
[11] = target: T1, Full length recombinant HBcAg (rHBcAg) …; experiment: competition EIA, HBcAg coated 5 ug/ml, peptide 50 ug/ml together with mAb 4-2 (competitor); OD of bound mAb
[12] = target: T1, Full length recombinant HBcAg (rHBcAg) …; experiment: competition EIA, HBcAg coated 5 ug/ml, peptide 100 ug/ml together with mAb 4-2 (competitor); OD of bound mAb
[13] = target: T1, Full length recombinant HBcAg (rHBcAg) …; experiment: competition EIA, HBcAg coated 5 ug/ml, peptide 200 ug/ml together with mAb 4-2 (competitor); OD of bound mAb
[14] = target: T1, Full length recombinant HBcAg (rHBcAg) …; experiment: competition EIA, HBcAg coated 5 ug/ml, peptide 12.5 ug/ml together with mAb 4-2 (competitor); OD of bound mAb
[15] = target: T1, Full length recombinant HBcAg (rHBcAg) …; experiment: competition EIA, HBcAg coated 5 ug/ml, peptide 6.25 ug/ml together with mAb 4-2 (competitor); OD of bound mAb
[16] = target: T1, Full length recombinant HBcAg (rHBcAg) …; experiment: EIA, support-bound peptide, HBcAg 5 ug/ml
[17] = target: T3, truncated recombinant form of HBeAg containing nine residues of pre-core and the 150 first residues of HBcAg (hepatitis B virus, UniProt P03146 1-150); experiment: EIA, support-bound peptide, HBeAg 5 ug/ml
T3 construct: domain: nine residues of pre-core;range 1-150; also called hepatitis B virus e antigen

[18] = target: T1, Full length recombinant HBcAg (rHBcAg) …; experiment: EIA, support-bound peptide, HBcAg 10 ug/ml
[19] = target: T1, Full length recombinant HBcAg (rHBcAg) …; experiment: EIA, support-bound peptide, HBcAg 20 ug/ml
[20] = target: T3, truncated recombinant form of HBeAg …; experiment: EIA, support-bound peptide, HBeAg 10 ug/ml
[21] = target: T3, truncated recombinant form of HBeAg …; experiment: EIA, support-bound peptide, HBeAg 20 ug/ml
[22] = target: T1, Full length recombinant HBcAg (rHBcAg) …; experiment: EIA, support-bound peptide, HBcAg 2.5 ug/ml
[23] = target: T3, truncated recombinant form of HBeAg …; experiment: EIA, support-bound peptide, HBeAg 2.5 ug/ml
[24] = target: T1, Full length recombinant HBcAg (rHBcAg) …; experiment: EIA, support-bound peptide, HBcAg 0.67 ug/ml
[25] = target: T1, Full length recombinant HBcAg (rHBcAg) …; experiment: EIA, support-bound peptide, HBcAg 1.25 ug/ml
[26] = target: T3, truncated recombinant form of HBeAg …; experiment: EIA, support-bound peptide, HBeAg 0.67 ug/ml
[27] = target: T3, truncated recombinant form of HBeAg …; experiment: EIA, support-bound peptide, HBeAg 1.25 ug/ml
[28] = target: T1, Full length recombinant HBcAg (rHBcAg) …; experiment: EIA, peptide coated 25 ug/ml, HBcAg 10 ug/ml
[29] = target: T1, Full length recombinant HBcAg (rHBcAg) …; experiment: EIA, peptide coated 50 ug/ml, HBcAg 10 ug/ml
[30] = target: T1, Full length recombinant HBcAg (rHBcAg) …; experiment: EIA, peptide coated 100 ug/ml, HBcAg 10 ug/ml
[31] = target: T1, Full length recombinant HBcAg (rHBcAg) …; experiment: EIA, peptide coated 12.5 ug/ml, HBcAg 10 ug/ml
[32] = target: T1, Full length recombinant HBcAg (rHBcAg) …; experiment: EIA, peptide coated 6.25 ug/ml, HBcAg 10 ug/ml
[33] = target: T1, Full length recombinant HBcAg (rHBcAg) …; experiment: EIA, peptide coated 3.125 ug/ml, HBcAg 10 ug/ml
[34] = target: T3, truncated recombinant form of HBeAg …; experiment: EIA, HBeAg on solid phase, fusion peptide 20 ug/well, gG2 mAb detection
[35] = target: T4, VKLSCKASGYIFTSHRGGPEE (SEQ. ID. No. 74); experiment: competition EIA, 5 ug HBcAg peptide + 5 ug SEQ 74 peptide on coated HBcAg (competitor); OD of bound SEQ 74 peptide
T4 peptide: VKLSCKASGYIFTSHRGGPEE

T1 sequence (P03146 whole entry, the tested form may be a part): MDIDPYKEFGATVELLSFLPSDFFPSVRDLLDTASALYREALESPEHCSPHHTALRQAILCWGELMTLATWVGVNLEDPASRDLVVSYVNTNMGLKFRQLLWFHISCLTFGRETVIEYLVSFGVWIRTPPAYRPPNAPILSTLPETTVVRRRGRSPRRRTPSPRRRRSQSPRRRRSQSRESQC
T3 sequence (P03146 1-150): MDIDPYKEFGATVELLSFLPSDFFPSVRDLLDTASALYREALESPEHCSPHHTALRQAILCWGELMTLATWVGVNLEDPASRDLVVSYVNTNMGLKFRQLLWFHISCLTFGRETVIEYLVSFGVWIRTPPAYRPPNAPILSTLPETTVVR

## QQKPGQPPKLLIKYASNLES [QQKPGQPPKLLIKYASNLES (SEQ. ID. No. 19)]
[1]
  OD at 405 nm: 0.299 OD
[2]
  OD at 405 nm: 0.016 OD
[3]
  OD at 405 nm: 0.064 OD
[4]
  OD at 490 nm: 0.406 OD
[5]
  OD at 490 nm: 0.383 OD
[6]
  OD at 490 nm: 0.394 OD
[7]
  OD at 490 nm: 0.368 OD
[8]
  OD at 490 nm: 0.391 OD
[9]
  OD at 490 nm: 0.336 OD
[10]
  OD at 490 nm: 1.24 OD
[11]
  OD at 490 nm: 1.23 OD
[12]
  OD at 490 nm: 1.11 OD
[13]
  OD at 490 nm: 0.925 OD
[14]
  OD at 490 nm: 1.24 OD
[15]
  OD at 490 nm: 1.06 OD

## YNMNWVKQSHGKSLEWIGNI (also called Peptide # 27) [YNMNWVKQSHGKSLEWIGNI (SEQ. ID. No. 30)]
[16]
  OD: 0.059 OD
[17]
  OD: 0.029 OD
[18]
  OD: 0.115 OD
[19]
  OD: 0.305 OD
[20]
  OD: 0.037 OD
[21]
  OD: 0.04 OD
[1]
  OD at 405 nm: 0.157 OD
[2]
  OD at 405 nm: 0.021 OD
[22]
  OD: 0.042 OD
[23]
  OD: 0.032 OD
[24]
  OD: 0.02 OD
[25]
  OD: 0.026 OD
[26]
  OD: 0.018 OD
[27]
  OD: 0.021 OD
[28]
  OD: 0.162 OD
[29]
  OD: 0.17 OD
[3]
  OD at 405 nm: 0.114 OD
[30]
  OD: 0.151 OD
[31]
  OD: 0.181 OD
[32]
  OD: 0.175 OD
[33]
  OD: 0.168 OD

## KLSCKASGYIFTSEHRGGPEE (also called fusion peptide) [KLSCKASGYIFTSEHRGGPEE (SEQ. ID. No. 70)]
[34]
  gG2 mAb binding (OD): 0.022 OD

## KLSCKASGYIFTSHRGGPEEF (also called fusion peptide) [KLSCKASGYIFTSHRGGPEEF (SEQ. ID. No. 71)]
[34]
  gG2 mAb binding (OD): 0.638 OD

## KLSCKASGYIFTSRGGPEEFE (also called fusion peptide) [KLSCKASGYIFTSRGGPEEFE (SEQ. ID. No. 72)]
[34]
  gG2 mAb binding (OD): 0.04 OD

## VKLSCKASGYIFTSEHRGGPE (also called fusion peptide) [VKLSCKASGYIFTSEHRGGPE (SEQ. ID. No. 73)]
[34]
  gG2 mAb binding (OD): 0.029 OD

## VKLSCKASGYIFTSGGPEEFE (also called fusion peptide) [VKLSCKASGYIFTSGGPEEFE (SEQ. ID. No. 76)]
[34]
  gG2 mAb binding (OD): 0.024 OD

## ATVELLSFLPSDFFPSVRDL [HBcAg peptide ATVELLSFLPSDFFPSVRDL (residues 11-30, Sequence ID 96)]
[35]
  OD at 490 nm: 1.39 OD

## SDFFPSVRDLLDTASALYRE [HBcAg peptide SDFFPSVRDLLDTASALYRE (residues 21-40, Sequence ID 97)]
[35]
  OD at 490 nm: 1.58 OD

## LDTASALYREALESPEHCSP [HBcAg peptide LDTASALYREALESPEHCSP (residues 31-50, Sequence ID 98)]
[35]
  OD at 490 nm: 1.59 OD

## ALESPEHCSPHHTALRQAIL [HBcAg peptide ALESPEHCSPHHTALRQAIL (residues 41-60, Sequence ID 99)]
[35]
  OD at 490 nm: 1.37 OD

## CWGELMTLATWVGVNLEDPA [HBcAg peptide CWGELMTLATWVGVNLEDPA (residues 61-80, Sequence ID 101)]
[35]
  OD at 490 nm: 1.4 OD

## WVGVNLEDPASRDLVVSYVN [HBcAg peptide WVGVNLEDPASRDLVVSYVN (residues 71-90, Sequence ID 102)]
[35]
  OD at 490 nm: 1.41 OD

## SRDLVVSYVNTNMGLKFRQL [HBcAg peptide SRDLVVSYVNTNMGLKFRQL (SEQ. ID. NO. 103, residues 81-100)]
[35]
  OD at 490 nm: 0.386 OD

## TNMGLKFRQLLWFHISCLTF [HBcAg peptide TNMGLKFRQLLWFHISCLTF (SEQ. ID. No. 104, residues 91-110)]
[35]
  OD at 490 nm: 0.058 OD

## LWFHISCLTFGRETVIEYLV [HBcAg peptide LWFHISCLTFGRETVIEYLV (residues 101-120, Sequence ID 105)]
[35]
  OD at 490 nm: 1.13 OD

## AYRPPNAPILSTLPETTVVR [HBcAg peptide AYRPPNAPILSTLPETTVVR (residues 131-150, Sequence ID 108)]
[35]
  OD at 490 nm: 1.56 OD
